The results in this text go back to article PMC6983471.

Assay [1] concerns the target VEK50[RH1/AA] (VEK50^ΔRH1), VEK50 with R17H18 replaced by Ala-Ala (Streptococcus pyogenes (isolate AP53)). The experiment in a line: NMR titration.
Assay [2] has as its target VEK50[RH2/AA] (VEK50^ΔRH2), VEK50 with R30H31 replaced by Ala-Ala (Streptococcus pyogenes (isolate AP53)). The assay is described as follows: NMR titration.
Assay [3] addresses VEK50[RH1/AA] (VEK50^ΔRH1), VEK50 with R17H18 replaced by Ala-Ala (Streptococcus pyogenes (isolate AP53)). The experiment in a line: ITC. On the technique in general: Isothermal titration calorimetry measures the heat released or taken up as one component is titrated into another.
The target in assay [4] is VEK50[RH2/AA] (VEK50^ΔRH2), VEK50 with R30H31 replaced by Ala-Ala (Streptococcus pyogenes (isolate AP53)). The assay is described as follows: ITC.
In assay [5] the target is VEK50[RH1/AA] (VEK50^ΔRH1), VEK50 with R17H18 replaced by Ala-Ala (Streptococcus pyogenes (isolate AP53)). The experiment in a line: AUC.
Assay [6] deals with VEK50[RH2/AA] (VEK50^ΔRH2), VEK50 with R30H31 replaced by Ala-Ala (Streptococcus pyogenes (isolate AP53)). The experiment in a line: AUC.

By Kd is commonly meant the equilibrium constant for the complex coming apart. Low values mean tighter binding, high ones weaker binding.

In the case of “K2hPg, kringle 2 domain of human plasminogen, triple variant C4G/E56D/L72Y (domain or fragment)”, the stoichiometry N (K2hPg per peptide) in assay [1], in assay [2], in assay [3], in assay [4], in assay [5] and in assay [6] was 1 throughout. For the same substance, the Kd in assay [3] amounted to 9 nM; in assay [4], 42 nM.
